Assay [1] concerns the target C. albicans cytosolic enolase (C. albicans) (UniProt P30575). The assay is described as follows: SPR; BIACORE 3000; enolase amine-coupled to a CM5 chip (about 300 RU); human protein as analyte (40-750 nM or 75-750 nM), 30 µL/min, 25 °C, 10 mM HEPES, 150 mM NaCl, 0.005% P20, pH 7.4; 1:1 Langmuir global fit with baseline drift and local Rmax; regeneration 1 M NaCl.
In assay [2] the target is C. tropicalis cytosolic enolase (C. tropicalis) (UniProt C5MD83). The description is as above.
In assay [3] the target is C. albicans cell surface-exposed enolase (C. albicans) (UniProt P30575). The description is as above.
Assay [4] has as its target human fibronectin (human). The experiment in a line: ELISA; microplate ligand-binding assay, semi-quantitative: 3 pmol human protein immobilised per MaxiSorp well, blocked with 3% BSA; biotin-labeled enolase 10-500 nM in PBS, 1.5 h, 37 °C; detection with SA-HRP/TMB; BSA-only wells subtracted. Background: ELISA stands for enzyme-linked immunosorbent assay.
The target in assay [5] is human vitronectin (human) (UniProt P04004). The description is as above.
human vitronectin (human), sequence (P04004 20-478): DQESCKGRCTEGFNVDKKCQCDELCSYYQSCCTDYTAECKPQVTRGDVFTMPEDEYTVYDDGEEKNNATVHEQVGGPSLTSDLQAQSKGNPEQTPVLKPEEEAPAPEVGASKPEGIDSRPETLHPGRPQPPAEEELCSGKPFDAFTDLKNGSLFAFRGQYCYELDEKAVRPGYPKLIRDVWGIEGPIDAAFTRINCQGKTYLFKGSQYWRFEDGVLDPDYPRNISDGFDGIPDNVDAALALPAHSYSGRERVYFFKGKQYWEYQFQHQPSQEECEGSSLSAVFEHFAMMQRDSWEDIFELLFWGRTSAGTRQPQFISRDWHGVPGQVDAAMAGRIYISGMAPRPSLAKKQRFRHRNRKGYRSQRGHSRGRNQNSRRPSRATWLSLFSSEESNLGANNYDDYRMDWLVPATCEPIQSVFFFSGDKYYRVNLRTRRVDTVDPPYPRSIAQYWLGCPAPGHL
The target of assay [6] is human plasminogen (human). The description is as above.
Assay [7] addresses C. albicans cytosolic enolase (C. albicans) (UniProt P30575). The assay is described as follows: ELISA; competition in a microplate: VTR immobilised (3 pmol per well); 40 nM biotinylated C. albicans enolase and 400 nM unlabeled HPG added together in PBS, 1.5 h, 37 °C; SA-HRP/TMB; also with 5 mM Mg2+ (no effect).

Bounds are passed on as bounds.

As a reminder, the Kd is the concentration at which binding is half-saturated. As usually defined, the koff is the first-order rate constant of dissociation. Lower therefore signals a long-lived complex. One may read the kon as the rate constant with which the complex forms. For the substance human fibronectin (natural protein), in assay [1], the Kd was 42.8 nM, the off-rate (koff) is 0.0277 s⁻¹ and the kon was 647000 M⁻¹ s⁻¹. In assay [2], this substance returned a Kd of 51.8 nM, a koff of 0.00284 s⁻¹ and a kon of 54800 M⁻¹ s⁻¹. Also, in assay [3], the Kd was 36.8 nM, the koff worked out at 0.00222 s⁻¹ and the kon was 60300 M⁻¹ s⁻¹.

Consider “recombinant C. albicans enolase with the 235-255 sequence of S. cerevisiae enolase (R-Enosc) (from UniProt P30575 1-440) (enzyme)”, for which the reduction in binding compared to R-Eno in assay [4], in assay [5] and in assay [6] was greater than 50% throughout.

Take human plasminogen (natural protein): in assay [1], the Kd came to 257 nM, the koff was 0.0693 s⁻¹ and the kon came out at 270000 M⁻¹ s⁻¹. In assay [2], the Kd stood at 253 nM, the off-rate (koff) amounted to 0.0146 s⁻¹ and the on-rate (kon) was found to be 57700 M⁻¹ s⁻¹. In assay [3], the equilibrium dissociation constant (Kd) worked out at 120 nM, the koff worked out at 0.0626 s⁻¹ and the kon was found to be 522000 M⁻¹ s⁻¹. The same substance gave a reduction of the binding of biotinylated enolase to immobilized VTR in assay [7] of 50%.

These data come from paper PMC7660097.
